Measurements reported in paper PMC6162332, “A unique intracellular tyrosine in neuroligin-1 regulates AMPA receptor recruitment during synapse differentiation and potentiation” (Nature Communications, 2018).

Target: T1, PSD-95-mCherry (rat, UniProt P31016 1-724)
T1 construct: PSD-95, rat; the rat PSD-95 gene subcloned in frame with an N-terminal mCherry into pET-24a(+) between EcoRI and XhoI; the methods give no limits; source: E. coli BL21-CodonPlus (DE3)-RIPL, purified (Ni-NTA, dialysed into PBS with 0.01% Tween-20); not shown: mCherry, N-terminal, kept
T1 sequence (P31016 whole entry): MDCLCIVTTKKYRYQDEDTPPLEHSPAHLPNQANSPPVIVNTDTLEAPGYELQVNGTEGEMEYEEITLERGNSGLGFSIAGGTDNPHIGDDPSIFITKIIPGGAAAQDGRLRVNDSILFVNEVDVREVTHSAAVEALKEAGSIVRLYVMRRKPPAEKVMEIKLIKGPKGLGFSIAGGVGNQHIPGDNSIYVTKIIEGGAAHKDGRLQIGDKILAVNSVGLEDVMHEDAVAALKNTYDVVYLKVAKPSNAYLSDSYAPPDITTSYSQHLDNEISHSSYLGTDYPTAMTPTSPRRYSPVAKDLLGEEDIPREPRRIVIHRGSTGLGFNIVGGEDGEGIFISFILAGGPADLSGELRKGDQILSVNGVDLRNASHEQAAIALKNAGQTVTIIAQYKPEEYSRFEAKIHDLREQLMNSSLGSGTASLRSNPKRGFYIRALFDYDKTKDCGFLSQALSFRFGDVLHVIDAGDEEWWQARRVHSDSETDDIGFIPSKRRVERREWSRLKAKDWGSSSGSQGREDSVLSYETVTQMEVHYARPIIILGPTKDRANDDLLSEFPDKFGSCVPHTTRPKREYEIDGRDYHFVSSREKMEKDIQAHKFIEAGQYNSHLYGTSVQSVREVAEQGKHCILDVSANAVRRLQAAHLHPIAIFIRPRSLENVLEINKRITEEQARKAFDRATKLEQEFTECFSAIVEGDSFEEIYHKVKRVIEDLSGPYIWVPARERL
Experiment: pull-down; GST or GST-Nlg1 proteins (0.64 nmol/200 µl) on glutathione magnetic beads in PBS pH 7.4, 0.01% BSA, 0.01% Tween-20; incubated 20 min at RT with purified PSD-95-mCherry (0.01 nmol/100 µL); eluted with glutathione; anti-PSD-95 immunoblot
Details: both partners purified

binding result | Binder
binds | GST-Nlg1-WT (GST fused to the intracellular domain of neuroligin-1) (domain or fragment, mouse, UniProt Q99K10 719-843, looked up, neuroligin-1 (Nlg1), mouse, cytoplasmic tail amplified from HA-Nlg1 (with splice inserts A and B) and inserted in pGex-4T1 at XhoI/NotI; source: E. coli BL21 (DE3)-RIPL, purified (Glutathione Sepharose 4 Fast Flow, dialysed against PBS)) YKKDKRRHDVHRRCSPQRTTTNDLTHAPEEEIMSLQMKHTDLDHECESIHPHEVVLRTACPPDYTLAMRRSPDDIPLMTPNTITMIPNTIPGIQPLHTFNTFTGGQNNTLPHPHPHPHSHSTTRV
binds | GST-Nlg1-Y782F (domain or fragment, mouse, UniProt Q99K10 719-843, looked up, neuroligin-1 (Nlg1), mouse, cytoplasmic tail amplified from HA-Nlg1-Y782F and inserted in pGex-4T1 at XhoI/NotI; Same limits as m1 (same primers); source: E. coli BL21 (DE3)-RIPL, purified (Glutathione Sepharose 4 Fast Flow, dialysed against PBS)) YKKDKRRHDVHRRCSPQRTTTNDLTHAPEEEIMSLQMKHTDLDHECESIHPHEVVLRTACPPDFTLAMRRSPDDIPLMTPNTITMIPNTIPGIQPLHTFNTFTGGQNNTLPHPHPHPHSHSTTRV
binds | GST-Nlg1-Y782A (domain or fragment, mouse, UniProt Q99K10 719-843, looked up, neuroligin-1 (Nlg1), mouse, cytoplasmic tail amplified from HA-Nlg1-Y782A and inserted in pGex-4T1 at XhoI/NotI; Same limits as m1 (same primers); source: E. coli BL21 (DE3)-RIPL, purified (Glutathione Sepharose 4 Fast Flow, dialysed against PBS)) YKKDKRRHDVHRRCSPQRTTTNDLTHAPEEEIMSLQMKHTDLDHECESIHPHEVVLRTACPPDATLAMRRSPDDIPLMTPNTITMIPNTIPGIQPLHTFNTFTGGQNNTLPHPHPHPHSHSTTRV
